What was measured:
HLA-DR DRB1*0101 [1] = molecular target: HLA-DR DRB1*0101 (human); assay: radioligand inhibition, purified HLA-DR
HLA-DR DRB1*1302 [2] = molecular target: HLA-DR DRB1*1302 (human); assay: radioligand inhibition, purified HLA-DR
HLA-DR DRB1*0401 [3] = molecular target: HLA-DR DRB1*0401 (human); assay: radioligand inhibition, purified HLA-DR
HLA-DR DRB1*0701 [4] = molecular target: HLA-DR DRB1*0701 (human); assay: radioligand inhibition, purified HLA-DR
HLA-DR DRB1*1501 [5] = molecular target: HLA-DR DRB1*1501 (human); assay: radioligand inhibition, purified HLA-DR
HLA-DR DRB1*1501 [6] = molecular target: HLA-DR DRB1*1501 (human); assay: radiolabeled-peptide inhibition, purified HLA-DR
HLA-DR DRB1*0101 [7] = molecular target: HLA-DR DRB1*0101 (human); assay: radiolabeled-peptide inhibition, purified HLA-DR
HLA-DR DRB1*0401 [8] = molecular target: HLA-DR DRB1*0401 (human); assay: radiolabeled-peptide inhibition, purified HLA-DR
HLA-DR DRB1*0701 [9] = molecular target: HLA-DR DRB1*0701 (human); assay: radiolabeled-peptide inhibition, purified HLA-DR
HLA-DR DRB1*1501 [10] = molecular target: HLA-DR DRB1*1501 (human); assay: radioligand inhibition, purified HLA-DR; remark: listed apart in the source
HLA-DR DRB1*1501 [11] = molecular target: HLA-DR DRB1*1501 (human); assay: radioligand inhibition, purified HLA-DR; remark: listed apart in the source
HLA-DR DRB3*0101 = HLA-DR DRB3*0101 (human); assay: radioligand inhibition, purified HLA-DR
HLA-DR DRB1*0101 [12] = molecular target: HLA-DR DRB1*0101 (human); assay: radioligand inhibition, purified HLA-DR; remark: listed apart in the source
HLA-DR DRB1*1302 [13] = molecular target: HLA-DR DRB1*1302 (human); assay: radioligand inhibition, purified HLA-DR; remark: listed apart in the source
HLA-DR DRB1*0401 [14] = molecular target: HLA-DR DRB1*0401 (human); assay: radioligand inhibition, purified HLA-DR; remark: listed apart in the source
HLA-DR DRB1*0301 [15] = molecular target: HLA-DR DRB1*0301 (human); assay: radioligand inhibition, purified HLA-DR
HLA-DR DRB1*0701 [16] = molecular target: HLA-DR DRB1*0701 (human); assay: radioligand inhibition, purified HLA-DR; remark: listed apart in the source
HLA-DR DRB1*0301 [17] = molecular target: HLA-DR DRB1*0301 (human); assay: radioligand inhibition, purified HLA-DR; remark: listed apart in the source

B1: Her2/neu.120 (peptide)
peptide: GDPLNNTTPVTGASP
HLA-DR DRB1*0101 [1]
  IC50: 6.36 µM
HLA-DR DRB1*1302 [2]
  IC50: 1.03 µM
HLA-DR DRB1*0401 [3]
  IC50: 7.46 µM
HLA-DR DRB1*0701 [4]
  IC50: 13.2 µM

B2: Her2/neu.126 (peptide)
peptide: TTPVTGASPGGLREL
HLA-DR DRB1*1501 [5]
  IC50: 17.1 µM

B3: Her2/neu.263 (peptide)
peptide: ICELHCPALVTYNTD
HLA-DR DRB1*1501 [5]
  IC50: 0.748 µM

B4: 9019.0044 (peptide)
peptide: CYGLGMEHLREVRAV
HLA-DR DRB1*1501 [6]
  IC50: 0.69 µM

B5: 9019.0048 (peptide)
peptide: PESFDGDPASNTAPL
HLA-DR DRB1*1501 [6]
  IC50: 0.805 µM

B6: 9019.0050 (peptide)
peptide: ITGYLYISAWPDSLP
HLA-DR DRB1*1501 [6]
  IC50: 0.152 µM

B7: 9019.0061 (peptide)
peptide: GHCWGPGPTQCVNCS
HLA-DR DRB1*0101 [7]
  IC50: 1.91 µM
HLA-DR DRB1*0401 [8]
  IC50: 3.74 µM
HLA-DR DRB1*0701 [9]
  IC50: 6.74 µM

B8: 9019.0064 (peptide)
peptide: LQGLPREYVNARHCL
HLA-DR DRB1*1501 [6]
  IC50: 0.423 µM

B9: 9019.0065 (peptide)
peptide: PSGVKPDLSYMPIWK
HLA-DR DRB1*0101 [7]
  IC50: 1.03 µM

B10: 9019.0067 (peptide)
peptide: ISAVVGILLVVVLGV
HLA-DR DRB1*1501 [6]
  IC50: 6 µM

B11: 9019.0068 (peptide)
peptide: ILLVVVLGVVFGILI
HLA-DR DRB1*1501 [6]
  IC50: 7.12 µM

B12: 1622.03 (peptide)
peptide: KIPVAIKVLRENTSP
HLA-DR DRB1*1501 [6]
  IC50: 0.611 µM

B13: 9019.0002 (peptide)
peptide: GMSYLEDVRLVHRDL
HLA-DR DRB1*1501 [6]
  IC50: 0.567 µM

B14: CEA.10 peptide 9019.0104 (peptide)
peptide: RWCIPWQRLLLTASL
HLA-DR DRB1*1501 [10]
  IC50: 0.061 µM

B15: 9019.0089 (peptide)
peptide: SDVWSYGVTVWELMT
HLA-DR DRB1*1501 [6]
  IC50: 1.88 µM

B16: Peptide 1622.04 (peptide)
peptide: ICTIDVYMIMVKCWM
HLA-DR DRB1*1501 [11]
  IC50: 2.65 µM

B17: Peptide 9019.0095 (peptide)
peptide: RPRFRELVSEFSRMA
HLA-DR DRB1*1501 [11]
  IC50: 0.348 µM

B18: Peptide 9019.0096 (peptide)
peptide: FRELVSEFSRMARDP
HLA-DR DRB3*0101
  IC50: 4.54 µM

B19: Peptide 9019.0099 (peptide)
peptide: LQRYSEDPTVPLPSE
HLA-DR DRB1*1501 [11]
  IC50: 5.31 µM

B20: Peptide 9019.0102 (peptide)
peptide: GATLERPKTLSPGKN
HLA-DR DRB1*0101 [12]
  IC50: 1.81 µM
HLA-DR DRB1*1302 [13]
  IC50: 5.33 µM
HLA-DR DRB1*0401 [14]
  IC50: 2.79 µM

B21: Peptide 9919.0173 (peptide)
peptide: LPRVGCPALPLPPPP
HLA-DR DRB1*0101 [12]
  IC50: 1.91 µM
HLA-DR DRB1*1302 [13]
  IC50: 8.94 µM
HLA-DR DRB1*0401 [14]
  IC50: 6.54 µM

B22: Peptide 9019.0179 (peptide)
peptide: PERLAACGPPPVAPP
HLA-DR DRB1*1501 [11]
  IC50: 4.05 µM

B23: Peptide 9019.0015 (peptide)
peptide: CAELVREPGCGCCSV
HLA-DR DRB1*0301 [15]
  IC50: 12.3 µM

B24: Peptide 9019.0182 (peptide)
peptide: ELPLQALVMGEGTCE
HLA-DR DRB1*0101 [12]
  IC50: 1.5 µM
HLA-DR DRB1*1302 [13]
  IC50: 9.17 µM
HLA-DR DRB1*0401 [14]
  IC50: 6.78 µM
HLA-DR DRB1*0701 [16]
  IC50: 15.6 µM

B25: Peptide 9019.0183 (peptide)
peptide: SEGGLVENHVDSTMN
HLA-DR DRB1*0401 [14]
  IC50: 1.2 µM
HLA-DR DRB1*0701 [16]
  IC50: 4.62 µM

B26: Peptide 9019.0022 (peptide)
peptide: APTIRGDPECHLFYN
HLA-DR DRB1*1501 [11]
  IC50: 3.67 µM

B27: CEA.123 peptide 9019.0119 (position 226) (peptide)
peptide: SDSVILNVLYGPDAP
HLA-DR DRB1*1501 [10]
  IC50: 0.351 µM

B28: CEA.570 peptide 9012.0135 (peptide)
peptide: VCGIQNSVSANRSDP
HLA-DR DRB1*1501 [10]
  IC50: 8.98 µM

B29: CEA.603 peptide 9012.0137 (peptide)
peptide: SSYLSGANLNLSCHS
HLA-DR DRB1*1501 [10]
  IC50: 13 µM

B30: CEA.624 peptide 9019.0138 (peptide)
peptide: QYSWRINGIPQQHTQ
HLA-DR DRB1*1501 [10]
  IC50: 2.07 µM

B31: CEA.629 peptide 9019.0139 (peptide)
peptide: INGIPQQHTQVLFIA
HLA-DR DRB1*1501 [10]
  IC50: 8.29 µM

B32: CEA.671 peptide 9919.0143 (peptide)
peptide: SITVSASGTSPGLSA
HLA-DR DRB1*1501 [10]
  IC50: 3.11 µM

B33: CEA.680 peptide 9019.0144 (peptide)
peptide: SPGLSAGATVGIMIG
HLA-DR DRB1*1501 [10]
  IC50: 3.93 µM

B34: CEA.688 peptide 9019.05 (peptide)
peptide: TVGIMIGVLVGVALI
HLA-DR DRB1*1501 [10]
  IC50: 7.77 µM

B35: Cyclin D1.56 (peptide)
peptide: MRKIVATWMLEVCEE
HLA-DR DRB1*1501 [5]
  IC50: 0.087 µM

B36: Cyclin D1.123 (peptide)
peptide: KLCIYTDNSIRPEEL
HLA-DR DRB1*1501 [5]
  IC50: 0.025 µM

B37: Cyclin D1.129 (peptide)
peptide: DNSIRPEELLQMELL
HLA-DR DRB1*1501 [5]
  IC50: 4.76 µM

B38: Cyclin D1.135 (peptide)
peptide: EELLQMELLLVNKLK
HLA-DR DRB1*0301 [17]
  IC50: 3.39 µM

B39: Cyclin D1.150 (peptide)
peptide: WNLAAMTPHDFIEHF
HLA-DR DRB1*0101 [1]
  IC50: 6.42 µM

B40: Cyclin D1.252 (peptide)
peptide: EALLESSLRQAQQNM
HLA-DR DRB1*1501 [5]
  IC50: 8.18 µM
